Measurements reported in PMC8528238 (Nature, 2021).

Molecular target: batCoV-SHC014 S-2P (Bat SARS-like coronavirus RsSHC014, UniProt U5WLK5, stabilised)
Test: ELISA

B1: DH1047, cross-neutralizing RBD antibody (antibody, V domains shown)
VH: QVQLVQSGAEVKKPGASVQVSCQASANTFTNHYIHWVRQAPGQGLEWMGIIYPTGGNTIYAQGFQGRVTMTRDTSLNTIYLELSSLRSEDTAVYYCARDVRVDDSWSGYDLLSGGTYFDYWGQGTLVTVSS
VL: not shown
- binding result: binds
